Reference: paper PMC9820535

Molecular target: T1, rDmeR (Vibrio parahaemolyticus RIMD 2210633) (UniProt Q87GM9)
T1 sequence: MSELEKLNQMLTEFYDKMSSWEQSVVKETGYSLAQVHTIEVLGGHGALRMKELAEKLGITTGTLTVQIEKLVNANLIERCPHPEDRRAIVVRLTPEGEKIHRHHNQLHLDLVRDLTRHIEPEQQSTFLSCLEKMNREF
Experiment: EMSA
Conditions: 10 mM Tris pH 7.4, 150 mM NaCl, 0.1 mM DTT, 0.1 mM EDTA or 0.5 mM CoSO4, 200 ng poly(dI:dC), 20 ng DNA, 0-1.0 ug rDmeR in 20 uL, 25 C 30 min, 6% native PAGE

Sequence | binding
TAAGCGGCTGATTCCCAAACAAGGCCGCATATGTTCATGCGGGGAGGCATCAGATTGGCCAATCTTGAGTGCAGTGATGAACGCCTTTCTTAGTTTTCTATGTTGACTTTGTTTGATGGTCAAACTAAATTTAAATCAAATATTTTGATTATCAAACAAAATGAGCAATAACGATATGATTTATCTATGGCAATAGCACAACACACGC (double strand) [PdmeRF promoter probe (WT)] | binds
CAAGGGCAACATCTTACAGCCATGACCGGTAAACAATGCATTTACCTAATTGACGACTTTGCGTCGGAATTAGATAGCCAACGTCGCAAGCGTCTTGCAGATTGCTTGAAAGAGACAGGCGCACAAGTATTTGTAAGCTCTATCACTGAAAACCAAATCGCCGACATGCTCGACGATAATGGCAAATTGTTTCATGTGGAACATGGCAGGATAGA (double strand) [PgyrB promoter probe] | no binding
